# Test system: K4 kissing-loop RNA reporter
# Assay: apparent KD of K4 kissing-loop reporter; higher = weaker reporter binding
# Conditions: Eterna round: R107
# Method: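 RNA-MaP round R107: designed RNA switches with theophylline, tryptophan, arginine or FMN aptamers are transcribed on-chip within common flanks. They are titrated with a labelled K4 kissing-loop RNA reporter in RNA-MaP buffer (100 mM Tris pH 7.5, 80 mM KCl, 4 mM MgCl2), without ligand or with the indicated ligand. Median apparent KD per design.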
# [1] = input ligand: theophylline 20 uM
# [2] = input ligand: tryptophan 2.4 mM
# 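Further: bound reporter read as fluorescence of individual clusters on recovered sequencing chips by microscopy, with normalized cluster intensities fitted with a binding model.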
Sequence,apparent KD of K4 kissing-loop reporter (input ligand: FMN 200 uM),apparent KD of K4 kissing-loop reporter (input ligand: arginine 13.2 mM),apparent KD of K4 kissing-loop reporter (input ligand: none),apparent KD of K4 kissing-loop reporter [1],apparent KD of K4 kissing-loop reporter [2]
ACAGGAAUCUUUGAUACCAGAACCCGUCUACCUCCAUCCUUGGAGCAUAGUGAUGUUGUGUUCCCUUGGCAGCAAUAGGGCACAU [theeternabot_exclusion_KL_Theo_B_34],711 nM,498 nM,632 nM,597 nM,644 nM
ACAGGAUCGAAAGAUCCUGAGCAGUCAAAACGAGGACCGGUACGGCCGCCACUCGAAUAAGAGAGUGAUGUUCUCGACUGCAAAA [Omei inspired 10 - Reversed #K4Late],939 nM,826 nM,1210 nM,1050 nM,223 nM
ACAGGAUCGAAAGAUCCUGAGCAGUCUAACCGAGGACCGGUACGGCCGCCACUCGGAGUGAUGUUCCGAGGACUGCAAAAUAAAA [#SwitchBubble 2 #CoaxialStacking],330 nM,305 nM,298 nM,329 nM,795 nM
ACAGGAUCGAAGAUCCUGAGCAGUCAGGUCCGAGGACCGGUACGGCCGCCACUCGGAGUGAUGUUCCGAAGACUGCAAAAUAAAA [#SwitchBubble 4],853 nM,455 nM,1110 nM,968 nM,338 nM
ACAUGAGUGAUGUUCAUGUGGAGCAGGGUACGAGGACCGGUACGGCCGCCACUCGAGAGUUAUGACGAGUUAAUGGCAACGAUGU [KL-Tryp-A8 #analogue],122 nM,90.2 nM,98.8 nM,96.3 nM,103 nM
ACAUGUUCCAGUGAUGUUGGCGUACGUGAUACCAGACGAAUAAAAGUCCCUUGGCAGCACAAAUAAGCCAAGAUAGGUGAAUGAU [#04 K4 Theophylline A Exclusion],403 nM,272 nM,495 nM,538 nM,405 nM
ACCAUCAAAGAUGGCCAGGACUCCGCUGAUACCAGUGUGAAAACACUCCCUUGGCAGCAGGUGAGUGAUGUUCACAGUCCAUGGA [Omel KL Theo A SS B v3],145 nM,116 nM,150 nM,146 nM,143 nM
ACCCGUAGGAUACGGAGGUGUAAAUGGGUAUAGGAUAUCUAGAAAUAGAGAAGGAUACCAGUGAUGUUGGUUCCGUAUAUCUUAA,272 nM,137 nM,105 nM,90 nM,119 nM
ACCCUACUCGGGCGGCUAUACAGUUAAGCUAAGGAUAUGUAUUCGUACAGAAGGUAGAAGAAGCCGAGUGAUGUUCGACACGCCC [theeternabot_sameState_KL_FMN_A_24],557 nM,386 nM,544 nM,293 nM,413 nM
ACCUACGAUCACAAAAGUGAUUGUAGGAUCUAGGAUAUGCUGAAGAGCAGAAGGAGAGUGAUGUUCUCAUCUCACGAAAGUGAGA [whbob_Ex_FMNA__2th189],408 nM,189 nM,216 nM,263 nM,201 nM
ACCUGUAGCAGAAGGAGCGACAGUUAUUCUGAUAGAACUCUGAGUGAUGUUCAGAACAACUGUCAGGUAGGUCGCUGAUACAGGU [Arg B Ex t8a],577 nM,370 nM,560 nM,512 nM,583 nM
ACCUGUGACUGAAGGAGCGUCUACUCCAGAGGAUGGAGUGAUGUUCCACUUUAAUGGAGUGGACAGGUAGGUCGCAGUCAUAGGA [Arg B SS t6],126 nM,94.5 nM,108 nM,88.7 nM,115 nM
ACCUUUUUUGCCAGUGAUGUUGGACAGGAAGGAGCGGGCAUAAGCCCAGGUAGGUCGCCUGUCAACUUUCUUAUAGCCCUAAGGU [KL-XArg-A17],365 nM,270 nM,507 nM,479 nM,349 nM
ACGCUGGUGAAUAACACUAGCGAAUAAUUCCGAGGACCGGUACGGCCGCCACUCGGCUAACUGCGAGUGAUGUUCGAUAAUAAAA [Mat - Mod of OpenEnded 3 - D10],78.5 nM,158 nM,103 nM,156 nM,57.5 nM
ACGUAGUUCUAGGAUACCAGCCAAGAUGCCAGGACAAAAGUCCUGGCAGCCAGUGAUGUUGGCCCUUGGCAGCCUAGAACUACGA [Omei KL Theo B Exc B v9],149 nM,115 nM,132 nM,121 nM,120 nM
ACGUCUCGUUAAAUCGUGGUUUCGAUCGAUACCAGUAGCGAGAGUUACCCUUGGCAGCGAAAUGAGUGAUGUUCAUGAAAGAAGA [KL-XTheoA9],65.2 nM,109 nM,69.4 nM,130 nM,57.3 nM
ACUACGAAGACGGCCGCCACUGAUAUUCGUAGAUCCAUCAUUACAUGAGUGAUGUUCAUGUAUAUCAGGACCGGGUCAAGAUGGU [KL-XTryp-B17 #analogue],184 nM,146 nM,164 nM,162 nM,226 nM
ACUGGGUUGACGAAAGUCAACAAAAGAGAAGGAGCGCACGAAAGUGCAGGUAGGUCGCUCAUCCAGUGAUGUUGGAUCAUCCAGA [#SwitchBubble 17 #K4Late],444 nM,679 nM,626 nM,392 nM,305 nM
AGAACUGUCUUGGAUACCAGUGAUGUUGGUAUCGAUGUGUGAGUGCAAAGCGUCCCACAUCGCCCUUGGCAGCUAAGACAGUUCA [Omei KL Theo B Exc A v5],331 nM,292 nM,341 nM,375 nM,292 nM
AGAAGAUAUCAAGAUACCAGCUCCCGGCCCAAAACCCAGAUACACGAGUGAUGUUCGUUCAGCCCUUGGCAGCUUGCCUAGUUCU [theeternabot_sameState_KL_Theo_B_6],94.4 nM,149 nM,125 nM,163 nM,89.4 nM
AGACCACAAAGUGGUCAGUGUUCGCUCCGGCGAGGACCGGUACGGCCGCCACUCGCGAGUGAUGUUCGCGAGCGGAGCGAACACA [Omei KL Tryp A Exc A v2],101 nM,86.6 nM,99.9 nM,88.9 nM,95.1 nM

# — the supplement of paper PMC9170038
